Reference: PMC11834443, “Allosteric regulation of pyruvate kinase enables efficient and robust gluconeogenesis by preventing metabolic conflicts and carbon overflow” (mSystems, 2025)
Blank lines part the entries; values can stand above or below the molecule they belong to.

Experiments:
[1] = molecular target: T1, wild-type full length pyruvate kinase (WT Pyk) (Bacillus subtilis, UniProt P80885); experiment: LDH-coupled assay, NADH absorbance at […] nm; format: biochemical
[2] = molecular target: T1, wild-type full length pyruvate kinase (WT Pyk); experiment: LDH-coupled assay, fit to nonessential activation equation; format: biochemical
[3] = molecular target: T1, wild-type full length pyruvate kinase (WT Pyk); format: biochemical
[4] = molecular target: the molecule itself; experiment: SEC; 100 µL of 100 µM protein on Superdex200 26/60; 20 mM Tris-Cl pH 7.5, 300 mM NaCl, 1 mM EDTA, 1 mM DTT, 10% glycerol; 3 mL/min, 4°C; mass from a standard curve of partition coefficients
purified protein = substrate: Nc1ncnc2c1ncn2[C@@H]1O[C@H](COP(=O)(O)OP(=O)(O)O)[C@@H](O)[C@H]1O; experiment: purified protein; settings: pH 7.5

- Ki [1]: 520 ± 50 µM
Molecule: Nc1ncnc2c1ncn2[C@@H]1O[C@H](COP(=O)(O)OP(=O)(O)OP(=O)(O)O)[C@@H](O)[C@H]1O [ATP]

- Kd [2]: 570 ± 40 µM
Molecule: O=P(O)(O)OC[C@H]1OC(O)[C@H](O)[C@@H]1O (stereo partly shown) [R5P]

Molecule: Nc1ncnc2c1ncn2[C@@H]1O[C@H](COP(=O)(O)O)[C@@H](O)[C@H]1O [AMP]
- LDH-coupled assay, NADH absorbance at 340 nm [3]: wild-type B. subtilis pyruvate kinase was activated by AMP or R5P (Fig. S3a)

B1: Bacillus subtilis pyruvate kinase, wild-type full length (enzyme, B. subtilis, UniProt P80885 1-585, looked up)
chain: MRKTKIVCTIGPASESIEMLTKLMESGMNVARLNFSHGDFEEHGARIKNIREASKKLGKNVGILLDTKGPEIRTHTMENGGIELETGKELIISMDEVVGTTDKISVTYEGLVHDVEQGSTILLDDGLIGLEVLDVDAAKREIKTKVLNNGTLKNKKGVNVPGVSVNLPGITEKDARDIVFGIEQGVDFIAPSFIRRSTDVLEIRELLEEHNAQDIQIIPKIENQEGVDNIDAILEVSDGLMVARGDLGVEIPAEEVPLVQKELIKKCNALGKPVITATQMLDSMQRNPRPTRAEASDVANAIFDGTDAIMLSGETAAGSYPVEAVQTMHNIASRSEEALNYKEILSKRRDQVGMTITDAIGQSVAHTAINLNAAAIVTPTESGHTARMIAKYRPQAPIVAVTVNDSISRKLALVSGVFAESGQNASSTDEMLEDAVQKSLNSGIVKHGDLIVITAGTVGESGTTNLMKVHTVGDIIAKGQGIGRKSAYGPVVVAQNAKEAEQKMTDGAVLVTKSTDRDMIASLEKASALITEEGGLTSHAAVVGLSLGIPVIVGLENATSILTDGQDITVDASRGAVYQGRASVL
notes: This looks larger than the untagged protein, although the methods say the His tag was removed with TEV protease; also called WT Pyk; WT; source: E. coli BL21 (DE3), purified (HisTrap FF, TEV digestion, size-exclusion chromatography); not shown: His6, N-terminal, cleaved
- stoichiometry N [4]: 4
- Km (purified protein): 1010 ± 30 µM

B2: Bacillus subtilis pyruvate kinase lacking the extra C-terminal domain (residues 1-474) (domain or fragment, B. subtilis, UniProt P80885 1-474, looked up)
chain: MRKTKIVCTIGPASESIEMLTKLMESGMNVARLNFSHGDFEEHGARIKNIREASKKLGKNVGILLDTKGPEIRTHTMENGGIELETGKELIISMDEVVGTTDKISVTYEGLVHDVEQGSTILLDDGLIGLEVLDVDAAKREIKTKVLNNGTLKNKKGVNVPGVSVNLPGITEKDARDIVFGIEQGVDFIAPSFIRRSTDVLEIRELLEEHNAQDIQIIPKIENQEGVDNIDAILEVSDGLMVARGDLGVEIPAEEVPLVQKELIKKCNALGKPVITATQMLDSMQRNPRPTRAEASDVANAIFDGTDAIMLSGETAAGSYPVEAVQTMHNIASRSEEALNYKEILSKRRDQVGMTITDAIGQSVAHTAINLNAAAIVTPTESGHTARMIAKYRPQAPIVAVTVNDSISRKLALVSGVFAESGQNASSTDEMLEDAVQKSLNSGIVKHGDLIVITAGTVGESGTTNLMKVHTVGD
notes: pyruvate kinase (Pyk) of Bacillus subtilis, N-terminal residues 1-474, without the extra C-terminal domain (ECTD); in pLIC-trPC-HA (plasmid pJW724); This looks larger than untagged residues 1-474, although the methods say the His tag was removed with TEV protease; also called PykΔECTD; ΔECTD pyruvate kinase; source: E. coli BL21 (DE3), purified (HisTrap FF, TEV digestion, size-exclusion …)
- stoichiometry N [4]: 4
- Km (purified protein): 1830 ± 240 µM
